Biological target: T1, mouse ADAMTS7 (Mus musculus, UniProt Q68SA9)
T1 construct: Full-length mouse Adamts7 1-1857 (Uniprot Q68SA9, WT or E373Q catalytic mutant); expressed in transfected cells; host or cells: Human Coronary Artery Smooth Muscle Cells (HCA-SMC, Lonza), adenovirus 50 MOI
T1 sequence (Q68SA9 221-1657): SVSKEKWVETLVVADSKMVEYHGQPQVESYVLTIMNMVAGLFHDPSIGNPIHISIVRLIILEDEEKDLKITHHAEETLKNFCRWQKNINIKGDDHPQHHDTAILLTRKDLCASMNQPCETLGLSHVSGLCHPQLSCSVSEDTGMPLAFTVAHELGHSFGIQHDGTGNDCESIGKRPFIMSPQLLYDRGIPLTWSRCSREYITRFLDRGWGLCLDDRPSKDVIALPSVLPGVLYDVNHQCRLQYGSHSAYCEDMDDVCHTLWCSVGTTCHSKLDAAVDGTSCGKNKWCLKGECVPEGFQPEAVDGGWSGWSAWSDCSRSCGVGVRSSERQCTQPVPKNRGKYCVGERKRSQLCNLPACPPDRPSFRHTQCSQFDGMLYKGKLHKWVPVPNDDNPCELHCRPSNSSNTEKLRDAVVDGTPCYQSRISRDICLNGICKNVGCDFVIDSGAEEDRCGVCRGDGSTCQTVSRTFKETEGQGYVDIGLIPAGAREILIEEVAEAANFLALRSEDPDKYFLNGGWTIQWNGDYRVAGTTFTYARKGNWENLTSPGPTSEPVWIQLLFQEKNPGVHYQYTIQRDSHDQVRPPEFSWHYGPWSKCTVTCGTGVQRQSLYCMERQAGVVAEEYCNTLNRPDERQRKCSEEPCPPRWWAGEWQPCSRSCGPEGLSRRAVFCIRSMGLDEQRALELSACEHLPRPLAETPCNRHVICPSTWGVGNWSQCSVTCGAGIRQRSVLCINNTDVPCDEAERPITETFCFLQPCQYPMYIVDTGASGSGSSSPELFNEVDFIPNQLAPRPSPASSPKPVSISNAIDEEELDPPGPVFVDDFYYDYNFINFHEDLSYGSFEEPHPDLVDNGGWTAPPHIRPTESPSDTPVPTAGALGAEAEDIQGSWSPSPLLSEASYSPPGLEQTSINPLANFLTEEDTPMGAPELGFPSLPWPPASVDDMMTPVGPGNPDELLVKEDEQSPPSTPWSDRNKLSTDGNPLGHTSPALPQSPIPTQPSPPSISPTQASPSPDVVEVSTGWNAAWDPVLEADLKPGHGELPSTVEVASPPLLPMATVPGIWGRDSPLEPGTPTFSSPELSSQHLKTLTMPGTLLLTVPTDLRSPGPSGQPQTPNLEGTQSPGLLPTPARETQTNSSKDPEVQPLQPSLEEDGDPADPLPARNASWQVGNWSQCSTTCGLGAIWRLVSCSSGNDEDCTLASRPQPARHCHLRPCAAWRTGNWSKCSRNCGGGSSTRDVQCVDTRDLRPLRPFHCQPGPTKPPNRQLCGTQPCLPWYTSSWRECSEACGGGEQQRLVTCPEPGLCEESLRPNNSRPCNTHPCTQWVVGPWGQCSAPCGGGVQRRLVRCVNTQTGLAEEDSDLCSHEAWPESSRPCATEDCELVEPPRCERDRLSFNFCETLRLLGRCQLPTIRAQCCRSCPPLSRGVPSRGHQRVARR
Test: TMT10 TAILS N-terminomics, HUVEC experiment (process replicates, trypsin/AspN digest)
Format: cell-based, human
Details: HUVEC TAILS HC; log fold change of N-terminal peptide, Ad-mADAMTS7 WT over Luc
Outline: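 Full-length mouse ADAMTS7 (WT or E373Q mutant, C-terminal 3xFLAG) or luciferase was transduced via adenovirus, 50 MOI, into HCA-SMC (SMC1, SMC2) or HUVEC. SMC1: pooled media, technical triplicates 400 ug; SMC2: process triplicates 300 ug; HUVEC: process triplicates 200 ug, bFGF2 10 ng/ml.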

Substance “COL18A1_1505 (LQPPVVQLHDSNPYPR; listed as Homo sapiens)” has a logFC.mWT.over.Luc of 3.05.

For “LTBP2_79 (VAGLQPVER; listed as Homo sapiens)”, the logFC.mWT.over.Luc was 1.13.

For “LTBP2_250 (SAAGEGTLAR; listed as Homo sapiens)”, the logFC.mWT.over.Luc was 1.84.

For “LTBP2_502 (LVENSVETRPPPWLPASPGHSLW; listed as Homo sapiens)”, the logFC.mWT.over.Luc was 2.47.

Work on “LTBP3_208 (FLVPLGPGQISA; listed as Homo sapiens)” yielded a logFC.mWT.over.Luc of 1.54.

“MAP4_815 (AVASTGPSSR; listed as Homo sapiens)” was tested, and the logFC.mWT.over.Luc was 2.87.

With “MAP4_816 (VASTGPSSR; listed as Homo sapiens)” the logFC.mWT.over.Luc was 2.13.

Substance “NID1_360 (FHQQHPQVI; listed as Homo sapiens)” has a logFC.mWT.over.Luc of 1.48.

“NID2_291 (HSSVPLGR; listed as Homo sapiens)” was tested, and the logFC.mWT.over.Luc was 2.80.

Substance “NUCB1_317 (FLASTQR; listed as Homo sapiens)” has a logFC.mWT.over.Luc of 2.71.

Substance “NUCB1_389 (LQQAVLHMEQR; listed as Homo sapiens)” has a logFC.mWT.over.Luc of 1.32.

For “SERBP1_56 (QAAAQTNSNAAGKQLR; listed as Homo sapiens)”, the logFC.mWT.over.Luc was 1.23.

For “SPOCK1_27 (LAGGAGPNHGNFL; listed as Homo sapiens)”, the logFC.mWT.over.Luc was 0.90.

With “SRGN_59 (LLPGESNKIPR; listed as Homo sapiens)” the logFC.mWT.over.Luc was 1.04.

Substance “THBS2_290 (LSENLKR; listed as Homo sapiens)” has a logFC.mWT.over.Luc of 5.05.
